Results as given in patent US20150290315A1.

Legend:
[1] = molecular target: HVEM stably expressed on B78-H1-A10 cells (UniProt Q92956); assay: cell-based or functional assay
[2] = molecular target: nectin-1 stably expressed on B78-H1-C10 cells (UniProt Q15223); assay: cell-based or functional assay
Sequence of UniProt Q15223 (Q15223 31-517 limits assumed): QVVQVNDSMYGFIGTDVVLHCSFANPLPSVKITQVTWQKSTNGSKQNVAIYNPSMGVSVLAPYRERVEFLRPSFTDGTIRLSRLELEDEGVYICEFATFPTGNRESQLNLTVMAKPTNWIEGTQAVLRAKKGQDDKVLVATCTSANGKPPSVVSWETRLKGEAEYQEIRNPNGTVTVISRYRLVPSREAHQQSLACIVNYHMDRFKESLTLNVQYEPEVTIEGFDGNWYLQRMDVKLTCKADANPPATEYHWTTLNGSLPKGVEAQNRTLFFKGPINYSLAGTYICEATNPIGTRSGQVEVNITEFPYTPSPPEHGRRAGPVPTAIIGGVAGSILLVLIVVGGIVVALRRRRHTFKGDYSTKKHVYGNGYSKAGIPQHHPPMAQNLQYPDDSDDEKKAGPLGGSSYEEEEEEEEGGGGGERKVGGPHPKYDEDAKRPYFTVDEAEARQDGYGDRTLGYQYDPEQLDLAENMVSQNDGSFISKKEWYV

Sequence of UniProt Q92956 (Q92956 39-283 limits assumed): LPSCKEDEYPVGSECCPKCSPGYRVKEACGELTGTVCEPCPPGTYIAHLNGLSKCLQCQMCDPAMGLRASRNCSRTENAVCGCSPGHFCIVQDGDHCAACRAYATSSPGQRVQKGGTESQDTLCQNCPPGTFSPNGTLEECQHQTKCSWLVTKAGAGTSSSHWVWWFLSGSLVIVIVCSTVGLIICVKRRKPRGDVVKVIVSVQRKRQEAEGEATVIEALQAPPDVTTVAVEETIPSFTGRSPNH

Substance: HSV-1 strain KOS glycoprotein D with the A3C mutation, as carried by the KOS-gDA3C virus (from UniProt A1Z0Q5 26-394)
- entry of virus into A10 cells (plaques counted after citrate wash) [1]: 50 % reduction
- entry of virus into C10 cells (plaques counted after citrate wash) [2]: 70 % reduction
